Experiments:
[1] = target: Human SIRPα v1 (antigen of the Octet and Biacore affinity measurements) (human, UniProt P78324 31-370, limits assumed); assay: SPR (Biacore), 1:1 binding model
Experimental: The humanized antibodies were characterized for binding affinity against human SIRPα v1, human SIRPα v2 using Surface Plasmon Resonance technology (Biacore system). The association and dissociation curves were fit with 1:1 binding model, and the Ka/Kd/KD values for each antibody were calculated.

[2] = target: full length human SIRPα v1 with a small beta-gal fragment (ED) fused to its C-terminal, expressed in K562 … (human, UniProt P78324 31-504); assay: cell-based or functional assay
Chain of full length human SIRPα v1 with a small beta-gal fragment (ED) fused to its C-terminal, expressed in K562 … (P78324 31-504): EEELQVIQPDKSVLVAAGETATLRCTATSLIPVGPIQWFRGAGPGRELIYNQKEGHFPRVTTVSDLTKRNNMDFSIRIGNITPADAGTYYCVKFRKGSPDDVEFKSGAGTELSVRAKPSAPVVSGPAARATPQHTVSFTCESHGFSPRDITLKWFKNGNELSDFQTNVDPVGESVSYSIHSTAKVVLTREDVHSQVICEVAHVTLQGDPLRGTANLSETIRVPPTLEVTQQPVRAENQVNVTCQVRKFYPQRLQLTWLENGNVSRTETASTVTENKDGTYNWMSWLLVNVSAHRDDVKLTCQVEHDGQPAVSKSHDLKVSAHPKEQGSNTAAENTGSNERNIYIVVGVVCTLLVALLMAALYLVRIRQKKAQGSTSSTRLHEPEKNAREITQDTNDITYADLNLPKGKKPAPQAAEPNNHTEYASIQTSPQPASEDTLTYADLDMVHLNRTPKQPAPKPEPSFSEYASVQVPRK

[3] = target: T1, human SIRPα v1 ECD recombinant protein (tag not given) (human, UniProt P78324 31-373); assay: competitive ELISA, mFc-CD47 ECD on coated SIRPα v1 ECD
T1 construct: extracellular domain; also called biotin labeled soluble human SIRPα v1 ECD recombinant protein; ELISA microplate coated human SIRPα v1 ECD
T1 sequence (P78324 31-373): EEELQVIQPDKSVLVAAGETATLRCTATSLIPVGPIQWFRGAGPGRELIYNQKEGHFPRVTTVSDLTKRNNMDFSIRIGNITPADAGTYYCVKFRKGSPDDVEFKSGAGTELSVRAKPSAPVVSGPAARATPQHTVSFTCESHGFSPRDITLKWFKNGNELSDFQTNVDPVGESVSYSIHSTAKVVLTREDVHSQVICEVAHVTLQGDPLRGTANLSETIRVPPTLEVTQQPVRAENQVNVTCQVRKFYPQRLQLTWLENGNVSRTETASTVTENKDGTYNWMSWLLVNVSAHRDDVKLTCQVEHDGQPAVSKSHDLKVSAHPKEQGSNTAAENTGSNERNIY
Experimental: (§1) Competitive ELISA assay was used to determine whether the purified chimeric antibodies can block CD47 and SIRPα interaction. Briefly, antibody and mFc tagged human CD47 ECD recombinant protein were co-incubated with ELISA microplate coated human SIRPα v1 ECD (FIGS. 6A and 6B) or human SIRPα v2 ECD (FIGS. 7A and 7B) recombinant protein. After washing, HRP labeled anti-mouse Fc 2nd antibody (Sigma) was added and incubated at 37° C. for 1 hour. Then, 100 μl/well of TMB solution (Biotechnology) was added. After incubation for 15 minutes at room temperature, the reaction was stopped by the addition of 50 μl of 1N HCl. OD 450 nm was read. Blocking ratio was determined by blockade of human CD47 ECD recombinant protein binding to ELISA microplate coated human SIRPα ECD recombinant protein. Other than 005, all antibodies as tested can block interaction between human CD47 and different human SIRPα variants.
(§2) The humanized antibodies were tested for the ability to block CD47 and SIRPα interaction with competitive ELISA assay (refer to methods described in Example 4.2.3.).

[4] = target: T2, human SIRPγ stably expressed on 293F cells (human, UniProt Q9P1W8 29-387); assay: FACS, 293F-hSIRPγ cells
T2 construct: whole, on cells
T2 sequence (Q9P1W8 29-387): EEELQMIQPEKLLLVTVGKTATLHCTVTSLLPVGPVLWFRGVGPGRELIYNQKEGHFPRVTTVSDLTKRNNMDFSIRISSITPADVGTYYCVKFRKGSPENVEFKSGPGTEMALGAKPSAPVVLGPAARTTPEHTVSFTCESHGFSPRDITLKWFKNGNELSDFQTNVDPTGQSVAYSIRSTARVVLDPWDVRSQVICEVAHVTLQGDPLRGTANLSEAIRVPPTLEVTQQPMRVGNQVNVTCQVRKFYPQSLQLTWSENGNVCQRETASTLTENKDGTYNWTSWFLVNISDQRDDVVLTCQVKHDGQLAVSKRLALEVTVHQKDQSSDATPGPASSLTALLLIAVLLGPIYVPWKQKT
Text: (§3) All the humanized antibodies as tested were confirmed to retain the similar activity as the parental antibody of 025c to bind to SIRP family members.

[5] = target: T3, human SIRPα v2 ECD recombinant protein (tag not given) (human); assay: competitive ELISA, mFc-CD47 ECD on coated SIRPα v2 ECD
T3 construct: extracellular domain; also called ELISA microplate coated human SIRPα v2 ECD
Experimental: as §1, §2

[6] = target: T4, full length human SIRPα v1 stably expressed on CHOK1 or 293F cells (human, UniProt P78324 31-504); assay: FACS, CHOK1-hSIRPα v1 cells
T4 construct: whole, on cells; also called CHOK1-human SIRPα v1; CHOK1-hSIRPα v1
T4 sequence (P78324 31-504): as the sequence (P78324 31-504) above
Text: as §3

[7] = target: T5, human SIRPβ stably expressed on CHOK1 cells (human, UniProt O00241 30-398); assay: FACS, CHOK1 cells stably expressing human SIRPβ
T5 construct: whole, on cells; also called CHOK1-human SIRPB; CHOK1-hSIRPβ
T5 sequence (O00241 30-398): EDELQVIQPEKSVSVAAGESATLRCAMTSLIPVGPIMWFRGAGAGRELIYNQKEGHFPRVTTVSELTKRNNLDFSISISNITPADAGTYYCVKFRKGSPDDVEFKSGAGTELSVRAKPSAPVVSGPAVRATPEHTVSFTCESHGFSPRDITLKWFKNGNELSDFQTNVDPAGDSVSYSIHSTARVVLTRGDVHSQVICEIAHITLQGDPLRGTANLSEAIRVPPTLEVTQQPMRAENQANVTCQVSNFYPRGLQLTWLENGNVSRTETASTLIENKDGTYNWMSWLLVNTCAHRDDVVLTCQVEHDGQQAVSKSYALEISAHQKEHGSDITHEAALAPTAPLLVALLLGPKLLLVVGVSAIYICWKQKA
Text: as §3

[8] = target: T5, human SIRPβ stably expressed on CHOK1 …; assay: FACS, CHOK1-hSIRPβ cells (columns c6 and c7 read as swapped)
Text: as §3

[9] = target: T4, full length human SIRPα v1 stably …; assay: competitive FACS, mFc-CD47 ECD on CHOK1-human SIRPα v1 cells
Experimental: Competitive FACS assay was also set up to further compare the blocking activity of the humanized antibodies and reference antibodies. Briefly antibody and mFc tagged human CD47 ECD recombinant protein were co-incubated with CHOK1 cells stably expressing human SIRPα v1 (FIG. 16A) or human SIRPα v2 (FIG. 16B). After washing, dye labeled anti-mouse Fc 2nd antibody (Sigma) was added and incubated at 37° C. for 1 hour. Fluorescence intensity was detected. Blocking ratio was determined by blockade of human CD47 ECD recombinant protein binding to SIRPα expressed CHOK1 cells. […] In particular, HEFLB doesn't work at all for human SIRPα v2.

Chain of Human SIRPα v1 (antigen of the Octet and Biacore affinity measurements) (P78324 31-370 limits assumed): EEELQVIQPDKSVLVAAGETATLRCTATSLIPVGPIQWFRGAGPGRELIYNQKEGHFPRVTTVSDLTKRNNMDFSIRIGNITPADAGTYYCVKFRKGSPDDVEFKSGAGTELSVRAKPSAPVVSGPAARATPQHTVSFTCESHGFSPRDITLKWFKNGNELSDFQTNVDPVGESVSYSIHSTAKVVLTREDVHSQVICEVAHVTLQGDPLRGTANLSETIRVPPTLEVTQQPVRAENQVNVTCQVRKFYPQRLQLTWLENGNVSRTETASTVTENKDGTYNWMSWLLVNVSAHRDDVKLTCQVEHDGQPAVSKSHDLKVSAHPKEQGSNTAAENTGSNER

B1: hu025.021 (antibody, V domains shown)
VH: EVQLVQSGAEVKKPGATVKISCKVSGFNIKDYYMHWVQQAPGKGLEWIGRIDPEDAETKYAPKFQGRVTITADTSTNTAYMELSSLRSEDTAVYYCDRGLAYWGQGTLVTVSS
VL: EIVLTQSPATLSLSPGERATLSCSASSSVSSSYLYWYQQKPGQAPKLWIYSTSNLASGIPARFSGSGSGTDYTLTISSLEPEDFAVYYCHQWSSYPYTFGQGTKLEIK
notes: Humanized 025; also called hu025.21
- Kd [1]: 3050 pM
- koff [1]: 0.00183 s⁻¹
- kon [1]: 599000 M⁻¹ s⁻¹
- SHP-1 recruitment blocking, IC50 [2]: 100 pM
- SHP-1 recruitment blocking, TOP blocking (%) [2]: 86.3%
- IC50 [3]: 2070 pM
- TOP blocking (%) [3]: 97.7%
- EC50 [4]: 210 pM
- TOP MFI [4]: 22100 MFI
- IC50 [5]: 1960 pM
- TOP blocking (%) [5]: 98.3%
- EC50 [6]: 1080 pM
- TOP MFI [6]: 56400 MFI
- EC50 (read off the curve) [7]: ~700 pM
- EC50 [8]: 680 pM
- TOP MFI [8]: 72000 MFI

B2: hu025.033 (antibody, V domains shown)
VH: EVQLVQSGAEVKKPGATVKISCKVSGFNIKDYYMHWVQQAPGKGLEWIGRIDPEDAETKYAPKFQGRVTITADTSTDTAYMELSSLRSEDTAVYYCDRGLAYWGQGTLVTVSS
VL: EIVLTQSPATLSLSPGERATLSCSASSSVSSSYLYWYQQKPGQAPKLWIYSTSNLASGIPARFSGSGSGTDYTLTISSLEPEDFAVYYCHQWSSYPYTFGQGTKLEIK
notes: Humanized 025
- SHP-1 recruitment blocking, IC50 [2]: 190 pM
- SHP-1 recruitment blocking, TOP blocking (%) [2]: 84.5%
- IC50 [3]: 2220 pM
- TOP blocking (%) [3]: 97.2%
- EC50 [4]: 210 pM
- TOP MFI [4]: 20900 MFI
- IC50 [5]: 1880 pM
- TOP blocking (%) [5]: 98.3%
- EC50 [6]: 990 pM
- TOP MFI [6]: 53800 MFI
- EC50 (read off the curve) [7]: ~700 pM
- EC50 [8]: 800 pM
- TOP MFI [8]: 69700 MFI

B3: hu025.060 (antibody, V domains shown)
VH: EVQLVQSGAEVKKPGATVKISCKASGFNIKDYYMHWVQQAPGKGLEWIGRIDPEDAETKYAPKFQGRVTITADTSTNTAYMELSSLRSEDTAVYYCDRGLAYWGQGTLVTVSS
VL: EIVLTQSPATLSLSPGERATLSCSASSSVSSSYLYWYQQKPGQAPKLWIYSTSNLASGIPARFSGSGSGTDFTLTISSLEPEDFAVYYCHQWSSYPYTFGQGTKLEIK
notes: Humanized 025; also called hu025.60
- Kd [1]: 1990 pM
- koff [1]: 0.00111 s⁻¹
- kon [1]: 560000 M⁻¹ s⁻¹
- SHP-1 recruitment blocking, IC50 [2]: 90 pM
- SHP-1 recruitment blocking, TOP blocking (%) [2]: 87.5%
- IC50 [3]: 2150 pM
- TOP blocking (%) [3]: 95.2%
- EC50 [4]: 220 pM
- TOP MFI [4]: 22200 MFI
- IC50 [5]: 1880 pM
- TOP blocking (%) [5]: 97%
- EC50 [6]: 840 pM
- TOP MFI [6]: 61500 MFI
- EC50 (read off the curve) [7]: ~700 pM
- EC50 [8]: 750 pM
- TOP MFI [8]: 71200 MFI
- IC50 [9]: 530 pM
- TOP blocking (%) [9]: 98.7%

B4: hu025.023 (antibody, V domains shown)
VH: EVQLVQSGAEVKKPGATVKISCKVSGFNIKDYYMHWVQQAPGKGLEWIGRIDPEDAETKYAPKFQGRVTITADTSTNTAYMELSSLRSEDTAVYYCDRGLAYWGQGTLVTVSS
VL: EIVLTQSPATLSLSPGERATLSCSASSSVSSSYLYWYQQKPGQAPKLWIYSTSNLASGIPARFSGSGSGTDFTLTISSLEPEDFAVYYCHQWSSYPYTFGQGTKLEIK
notes: Humanized 025; also called hu025.23
- Kd [1]: 2670 pM
- koff [1]: 0.00172 s⁻¹
- kon [1]: 643000 M⁻¹ s⁻¹
- SHP-1 recruitment blocking, IC50 [2]: 100 pM
- SHP-1 recruitment blocking, TOP blocking (%) [2]: 85.5%
- IC50 [3]: 2600 pM
- TOP blocking (%) [3]: 97.2%
- EC50 [4]: 200 pM
- TOP MFI [4]: 22400 MFI
- IC50 [5]: 2070 pM
- TOP blocking (%) [5]: 98%
- EC50 [6]: 1130 pM
- TOP MFI [6]: 57800 MFI
- EC50 (read off the curve) [7]: ~700 pM
- EC50 [8]: 660 pM
- TOP MFI [8]: 72800 MFI
- IC50 [9]: 570 pM
- TOP blocking (%) [9]: 97.7%

B5: hu025.059 (antibody, V domains shown)
VH: EVQLVQSGAEVKKPGATVKISCKASGFNIKDYYMHWVQQAPGKGLEWIGRIDPEDAETKYAPKFQGRVTITADTSTNTAYMELSSLRSEDTAVYYCDRGLAYWGQGTLVTVSS
VL: EIVLTQSPATLSLSPGERATLSCSASSSVSSSYLYWYQQKPGQAPKLWIYSTSNLASGIPARFSGSGSGTDYTLTISSLEPEDFAVYYCHQWSSYPYTFGQGTKLEIK
notes: Humanized 025; also called hu025.59
- Kd [1]: 2290 pM
- koff [1]: 0.00123 s⁻¹
- kon [1]: 536000 M⁻¹ s⁻¹
- SHP-1 recruitment blocking, IC50 [2]: 100 pM
- SHP-1 recruitment blocking, TOP blocking (%) [2]: 78.8%
- IC50 [3]: 2480 pM
- TOP blocking (%) [3]: 97.1%
- EC50 [4]: 200 pM
- TOP MFI [4]: 22700 MFI
- IC50 [5]: 2030 pM
- TOP blocking (%) [5]: 98.3%
- EC50 [6]: 1050 pM
- TOP MFI [6]: 59400 MFI
- EC50 (read off the curve) [7]: ~700 pM
- EC50 [8]: 670 pM
- TOP MFI [8]: 73100 MFI

Reference: patent US20250270315A1 (ELPISCIENCE SUZHOU BIOPHARMA, published 2025)
